What was measured:
Experiment in all cases: ELONA (direct, immobilized protein)
[1] = molecular target: SARS-CoV-2 Alpha VOC spike (S) protein (SARS-CoV-2 (Alpha variant)) (UniProt P0DTC2)
[2] = molecular target: SARS-CoV-2 Delta VOC spike (S) protein (SARS-CoV-2 (Delta variant)) (UniProt P0DTC2)
[3] = molecular target: SARS-CoV-2 Omicron VOC spike (S) protein (SARS-CoV-2 (Omicron variant)) (UniProt P0DTC2)

Which Kd [1] does the source give for “AGTTAGCCGTCATTCAGACGATTTGTCCGTGTTACGATTGGGGAACGTGGATGACATTCTGGACACTCGCCATGCTCGAT [Alpha Apt (Bio)]” here?
Its Kd is 194 nM.

With “ATCGAGCATGGCGAGTGTCCTATCCCCCATCAACTCAACCCAACCAGTACGACTCCTCCTCGTCTGAATGACGGCTAACT [Delta Apt (Bio)]” as the sequence, how does the Kd [2] read?
The Kd was 112 nM.

Which Kd [3] does the source give for “CTGGCCTCACTGGATACTCTAAGACTATTGGTCAAGTTTGCCTTGTCAAGGCTATTGGTCAAGGCAAGGCTGGCCAACCCATGGGTGGAGTTTAGCCAG [Omicron Apt (Bio)]” here?
Its Kd is 32 nM.
